According to patent publication US20260266828A1, “BIOMARKERS FOR PREDICTING CANCER TREATMENT EFFICACY” (Arcus Biosciences, Inc., priority 2023, published 2026):

Test system: CXCL9, CXCL10, CXCL11, IL-12B, IL-18, IL-6, IFNγ, TNFα
Test: Serum cytokines, Meso Scale Discovery multiplex assays, baseline and C2D1
Format: in vivo, human
Procedure: Soluble biomarkers were retrospectively analyzed in baseline and on-treatment peripheral blood derived samples obtained from a subset of subjects enrolled in the clinical trial of Example 2. Baseline samples were obtained on day 1 of cycle 1 (CID1), prior to administration of any study drugs. On-treatment samples were obtained on day 1 of cycle 2 (C2D1), prior to administration of study drugs on that day.
Blood collected in serum separator tubes was allowed to clot for 30-60 minutes before centrifugation at 1300 g for 10 minutes to separate the serum. Serum was isolated and stored at −80° C. until cytokine analysis. Serum cytokines were quantified in multiplex assays using the Meso Scale Discovery platform following the manufacturer's protocol. Briefly, plates were coated with biotinylated capture antibodies specific to the analyte of interest bound to linkers specific to unique spots in each well of a 96-well plate. Serum samples, assessed in duplicate, were diluted 8-fold to quantify CXCL9, CXCL10, CXCL11 and IL-18 in a U-plex assay, diluted 10-fold to quantify IL-12B in a U-plex assay, and diluted 5-fold to quantify IFNγ, TNFα and IL-6 in the S-plex assay. Samples were incubated on linker/capture antibody-coated plates, followed by detection with a sulfo-tag-labelled antibody for the U-plex assays and a TURBO-tag-labelled antibody for the S-plex assay. For the S-plex assay, additional steps incorporated in the manufacturer's protocol to amplify signal with enhance solution and detection solution were followed. Following addition of read buffer, the electrochemiluminescent signal was measured on a MESO Sector S 600 instrument. Between each step of the protocol plates were washed with 0.05% Tween-PBS. A standard curve was generated for each plate using a 4-parameter logistic fit with 1/y^2 weighting. Cytokine concentrations in samples were interpolated using the standard curve, allowing quantification of the analyte of interest. Fold change from baseline was calculated as a ratio of the cytokine concentration at C2D1 over the cytokine concentration at baseline. A linear mixed model performed on log transformed raw cytokine values with baseline values as covariates assessed the difference in cytokine levels over time and between treatment groups.

B1: zimberelimab (antibody, chains of the INN, looked up, V domains shown)
VH: QLQLQESGPGLVKPSETLTLTCTVSADSISSTTYYWVWIRQPPGKGLEWIGSISYSGSTYYNPSLKSRVTVSVDTSKNQFSLKLNSVAATDTALYYCARHLGYNGRYLPFDYWGQGTLVTVSS
VL: QSALTQPASVSGSPGQSITISCTGTSSDVGFYNYVSWYQQHPGKAPELMIYDVSNRPSGVSDRFSGSKSGNTASLTISGLQAEDEADYYCSSYTSISTWVFGGGTKLTVL
notes: zimberelimab monotherapy 360 mg IV Q3W; anti-PD-1 antibody
C2D1 over baseline
  CXCL9, Fold change, median: 2.4
  CXCL10, Fold change, median: 1.7
  CXCL11, Fold change, median: 1.6
  IFNγ, Fold change, median: 1.6
  IL-6, Fold change, median: 1.0
  IL-12B, Fold change, median: 1.5
  IL-18, Fold change, median: 1.2
  TNFα, Fold change, median: 1.2
Day 1 of cycle 2, pre-dose
  CXCL9, C2D1, median: 621 pg/mL
  CXCL10, C2D1, median: 639 pg/mL
  CXCL11, C2D1, median: 172 pg/mL
  IFNγ, C2D1, median: 1100 fg/mL
  IL-6, C2D1, median: 14385 fg/mL
  IL-12B, C2D1, median: 284 pg/mL
  IL-18, C2D1, median: 779 pg/mL
  TNFα, C2D1, median: 1336 fg/mL
